In IntAct's records for PubMed 22000520:

B1: Serine/threonine-protein kinase PknB (Mycobacterium tuberculosis (strain ATCC 25618 / P9WI81 (parent)
chain: MTTPSHLSDRYELGEILGFGGMSEVHLARDLRLHRDVAVKVLRADLARDPSFYLRFRREAQNAAALNHPAIVAVYDTGEAETPAGPLPYIVMEYVDGVTLRDIVHTEGPMTPKRAIEVIADACQALNFSHQNGIIHRDVKPANIMISATNAVKVMDFGIARAIADSGNSVTQTAAVIGTAQYLSPEQARGDSVDARSDVYSLGCVLYEVLTGEPPFTGDSPVSVAYQHVREDPIPPSARHEGLSADLDAVVLKALAKNPENRYQTAAEMRADLVRVHNGEPPEAPKVLTDAERTSLLSSAAGNLSGPRTDPLPRQDLDDTDRDRSIGSVGRWVAVVAVLAVLTVVVTIAINTFGGITRDVQVPDVRGQSSADAIATLQNRGFKIRTLQKPDSTIPPDHVIGTDPAANTSVSAGDEITVNVSTGPEQREIPDVSTLTYAEAVKKLTAAGFGRFKQANSPSTPELVGKVIGTNPPANQTSAITNVVIIIVGSGPATKDIPDVAGQTVDVAQKNLNVYGFTKFSQASVDSPRPAGEVTGTNPPAGTTVPVDSVIELQVSKGNQFVMPDLSGMFWVDAEPRLRALGWTGMLDKGADVDAGGSQHNRVVYQNPPAGTGVNRDGIITLRFGQ
partner: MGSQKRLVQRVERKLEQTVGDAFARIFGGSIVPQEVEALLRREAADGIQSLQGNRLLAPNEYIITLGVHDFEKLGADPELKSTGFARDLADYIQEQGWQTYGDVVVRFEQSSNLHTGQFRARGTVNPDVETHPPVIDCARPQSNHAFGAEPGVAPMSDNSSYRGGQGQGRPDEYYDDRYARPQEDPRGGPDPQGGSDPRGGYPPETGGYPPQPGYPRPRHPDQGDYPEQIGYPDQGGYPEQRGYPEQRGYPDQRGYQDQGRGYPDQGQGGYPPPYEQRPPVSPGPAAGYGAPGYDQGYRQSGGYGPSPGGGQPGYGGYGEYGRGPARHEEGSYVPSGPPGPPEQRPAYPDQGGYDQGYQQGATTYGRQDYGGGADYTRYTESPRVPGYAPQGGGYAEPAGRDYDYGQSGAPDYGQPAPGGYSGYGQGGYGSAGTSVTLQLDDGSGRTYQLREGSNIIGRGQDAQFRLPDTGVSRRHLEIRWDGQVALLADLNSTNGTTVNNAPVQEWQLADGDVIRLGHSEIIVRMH
B2: FHA domain-containing protein FhaA (Mycobacterium tuberculosis (strain ATCC 25618 / P71590 (parent)
chain: B1 partner
partner: B1 chain

Variants of: B1
Conditions: with fhaa_myctu fhaA

Variant	effect of a mutation on the interaction
T309A	increasing interaction
T294A	increasing interaction

Variants of: B2
Conditions: with pknb_myctu pknB

Variant	effect of a mutation on the interaction
MGSQKRLVQRVERKLEQTVGDAFARIFGGSIVPQEVEALLRREAADGIQSLQGNRLLAPNEYIITLGVHDFEKLGADPELKSTGFARDLADYIQEQGWQTYGDVVVRFEQSSNLHAGQFRARGTVNPDVETHPPVIDCARPQSNHAFGAEPGVAPMSDNSSYRGGQGQGRPDEYYDDRYARPQEDPRGGPDPQGGSDPRGGYPPETGGYPPQPGYPRPRHPDQGDYPEQIGYPDQGGYPEQRGYPEQRGYPDQRGYQDQGRGYPDQGQGGYPPPYEQRPPVSPGPAAGYGAPGYDQGYRQSGGYGPSPGGGQPGYGGYGEYGRGPARHEEGSYVPSGPPGPPEQRPAYPDQGGYDQGYQQGATTYGRQDYGGGADYTRYTESPRVPGYAPQGGGYAEPAGRDYDYGQSGAPDYGQPAPGGYSGYGQGGYGSAGTSVTLQLDDGSGRTYQLREGSNIIGRGQDAQFRLPDTGVSRRHLEIRWDGQVALLADLNSTNGTTVNNAPVQEWQLADGDVIRLGHSEIIVRMH [T116A]	disrupting interaction
